Results: the supplement of paper PMC12042874
± gives the uncertainty stated by the source.

experiment: amyloid nucleation score (Sup35N fusion, yeast selection) (log enrichment); library NNK3; higher = more nucleation; inactive = no reads after selection
Method in brief: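 The nucleation score is the log enrichment of output over input reads, calculated with DiMSum and centred on the mode score of non-aggregating sequences. Sequences with under 100 input reads were excluded. Reads came from Illumina sequencing of plasmid inserts from psi-negative yeast expressing Sup35N fused to peptides of 20 random codons, induced 24 hours with 100 μM copper sulfate and grown 7 days at 30°C without adenine and uracil.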

Substance	amyloid nucleation score
KPQYENVMCY	inactive
KPRILFQCPIRKVLRVGVKF	inactive
KPRSC	inactive
KPSRNESLQMALLSYIYLFR	inactive
KQLDDPRQICIFYPT	inactive
KQVNWS	inactive
KRDIVFLCGDWVDSFTCSGG	1.79 ± 0.075
KRFMDLTHIESSRAKVYRVT	inactive
KRGLTGVSLVLDETVAVPSD	inactive
KRITLWCLCFRSYDHEMMV	inactive
KRNFGWSAIRVQFIDFCLKG	inactive
KRRMRGALRVRVNSTHCWYV	inactive
KRRSTRL	inactive
KRSSSAAIKKRIIVQIDGNR	inactive
KRVRVRFASAMHGLMSHPDT	inactive
KSCHQSRFISDYRPAAPEDS	inactive
KSDPPGTVLYYTLAQPLYLL	inactive
KSEFSRSHWESDD	inactive
KSIIYTILLVWFKYGVHSPL	inactive
KSRSYPCIEPNV	inactive
KSWYEFPKMLRNHRTYNQRL	inactive
KTLTGQFGCSTTALCNDVEC	-0.515 ± 0.75
KTMVYGIQANDGWLVHGGFL	inactive
KVFPFEVEVLFFHGGDMSCG	-0.121 ± 0.36

Substance	amyloid nucleation score
KVIRNTFIACCSV	2.16 ± 0.07
KVLLWPSWFK	inactive
KVRNPWMRIDTVCRFFILVV	inactive
KVSNTRLVRTINMSCGISYP	inactive
KVTLRNRFISMPNFMIEP	inactive
KVVNGVRCKKSQGLI	inactive
KVVVMDCWWNNIYCTDQWVI	-0.021 ± 0.22
KWFRHFHI	inactive
KWKFCSGYAELMLP	inactive
KWRDIIYCIYSIMIDSCTSR	inactive
KWTSCSYPH	inactive
KWVKPRVVTQKR	inactive
KYCNFTGVFWQTNIFTVVPM	2.17 ± 0.087
KYEVCSYFNLCGEGKYRTVV	inactive
KYFRNIYWHISRRIWAKAPG	inactive
KYGFAVRPFDTGSRMSHFCW	inactive
KYINFSLNS	inactive
KYKVDIMLRIARSTVFSDSF	inactive
KYVRVLHCIDLFRSSLSHIG	inactive
KYWLMVWRFNYCMTYNGGLE	inactive
LAEVMTVLLFDYVNHWGSAI	inactive
LAIFMDSENSYKRMHTVT	inactive
LAKDVFIC	inactive
LALFDRGTCRQSSVYSGEDS	inactive

Substance	amyloid nucleation score
LAPRSMGIATSSHGSSNVIG	-0.387 ± 0.88
LARLCCLSVSFSKLLIVFTI	inactive
LASIHCVHLMRTYVRVQPPM	0.87 ± 0.26
LASRMMFSLTDAMTDADGSV	inactive
LASRRQMMWVVHRFLNGAVH	inactive
LASVLEYESWLSLFIWQSKH	0.195 ± 0.34
LAVFSNRRCFFLENQYHRRS	inactive
LAVYPTGTDRDFGF	inactive
LAVYSSINFSRNGGSLTWTI	inactive
LCCKIHSRTKMRRGSC	inactive
LCCRQVTFERDVVVRYRRRR	inactive
LCERIGVISGA	inactive
LCFFV	inactive
LCFNCGVFCFFFRVGETTNW	2.84 ± 0.056
LCFRCASLTESIGL	inactive
LCFWNGLTTIDYYSFMGLLS	0.409 ± 0.15
LCGSKICFLDSYDVESLISR	inactive
LCGYGSGKTISG	inactive
LCICFRNLLFEWCSLAE	inactive
LCKIRECHCNLYHRVYMGWN	inactive
LCLVSLVIHHGYVLVT	inactive
LCNFKDSADNWVSVGGNVGE	inactive
LCPLMAY	inactive
LCPRFGEEWCC	inactive

Substance	amyloid nucleation score
LCQTVCRAPI	inactive
LCRSSMGPFGNLWEKQLYIW	inactive
LCSAIGWSSACIFVWSYYTR	inactive
LCSVDVVLPVKYCVLPDH	1.76 ± 0.076
LCTSLLKF	-0.5 ± 0.9
LCVDVS	inactive
LCVFL	1.1 ± 0.15
LCVFWCGIPDRVFCNNGWMV	inactive
LCWVNQVREMGRWNTGVQSG	inactive
LDCTHSTLFWWRRFVSAYSL	inactive
LDERCLLVGMAYMLVCY	inactive
LDLCSRL	inactive
LDLDSNIGFISVLPF	inactive
LDLDVDNVSSDGKTWMGLV	inactive
LDMKPRQARTFFLNHGVLPA	0.313 ± 0.78
LDNTLDN	inactive
LEDRACVFNKLIVLQ	inactive
LENFRCPVEGAVQERFGANL	inactive
LENGVHVRRSIEF	inactive
LENRSFNMMMFV	inactive
LERHL	inactive
LESFAGQAQWGCGSYQSFCL	inactive
LFCIY	inactive
LFDIVSQITLWQGPTHAFFK	inactive

Substance	amyloid nucleation score
LFGARDVFFER	inactive
LFGCEQRYP	inactive
LFGCNERCFYFAF	inactive
LFGGCLSLDDIVTDRLMTCF	inactive
LFGNSNRSGCSSLRQIGCLC	inactive
LFGSF	inactive
LFGYSNSRRHMIGMQSY	inactive
LFIRQG	inactive
LFIWTDILTFLRS	inactive
LFLVA	inactive
LFMCIAMM	0.284 ± 0.46
LFMLGQLLTWDFHALSSGYV	0.523 ± 0.19
LFMRCSYCSV	inactive
LFNNFYLVSFGWLDGG	2.31 ± 0.068
LFNPMKTVYWHNLAIWHYDV	inactive
LFRFS	inactive
LFRIRQCFFYFSIFLVFSIK	inactive
LFRLACVTNMRSNLLSYRRC	0.131 ± 0.64
LFRVSWMLGNKIDISKSIYR	inactive
LFSHESLVTTGLVAVFSLAK	inactive
LFSSFTSPLRMRWLDRSYHF	inactive
LFTKRSYCCSCVVSGSEWAY	0.852 ± 0.21
LFVIINPQVTWLLFRMFESH	inactive
